Results: patent US20240010749A1

What was measured:
[1] = target: human CEACAM5 expressed on cancer cell lines (MKN-45, NCI-H441, SNU-16, SK-CO-1, LS174T) (human) (UniProt P06731); test: flow cytometry, MKN-45 cells, 10 µg/mL antibody
[2] = target: human CEACAM5 expressed on cancer cell lines (MKN-45, NCI-H441, SNU-16, SK-CO-1, LS174T) (human) (UniProt P06731); test: flow cytometry, NCI-H441 cells, 10 µg/mL antibody

human CEACAM5 expressed on cancer cell lines (MKN-45, NCI-H441, SNU-16, SK-CO-1, LS174T) (human), sequence (P06731 35-685): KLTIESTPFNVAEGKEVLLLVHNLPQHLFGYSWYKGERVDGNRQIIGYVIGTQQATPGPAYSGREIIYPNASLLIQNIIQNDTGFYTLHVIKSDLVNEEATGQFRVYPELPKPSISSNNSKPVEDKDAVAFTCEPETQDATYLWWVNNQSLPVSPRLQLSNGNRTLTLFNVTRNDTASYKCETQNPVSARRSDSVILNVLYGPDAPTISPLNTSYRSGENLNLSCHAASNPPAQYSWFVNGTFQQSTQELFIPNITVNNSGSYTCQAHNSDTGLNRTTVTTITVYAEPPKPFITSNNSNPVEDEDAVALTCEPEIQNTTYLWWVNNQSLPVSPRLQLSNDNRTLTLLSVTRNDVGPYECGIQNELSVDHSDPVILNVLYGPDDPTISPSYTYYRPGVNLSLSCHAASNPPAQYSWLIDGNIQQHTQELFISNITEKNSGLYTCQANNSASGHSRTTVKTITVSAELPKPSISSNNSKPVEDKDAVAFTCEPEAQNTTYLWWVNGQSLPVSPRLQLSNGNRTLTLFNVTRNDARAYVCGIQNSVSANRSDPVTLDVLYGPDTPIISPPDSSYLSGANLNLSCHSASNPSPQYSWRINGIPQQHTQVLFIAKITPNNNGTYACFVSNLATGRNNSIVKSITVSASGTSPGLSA

quotient of MFI of antibody divided by MFI of secondary antibody only control [1]: 3.8 | quotient of MFI of antibody divided by MFI of secondary antibody only control [2]: 1.1
Substance: mouse monoclonal anti-CEACAM5 antibody Agilent Dako #M7072 clone II7
